From US20250042973A1 (WUHAN UNIVERSITY, published 2025)

Molecular target: the molecule itself
Assay: self-association (homodimer) seen on SDS-PAGE / Western blot after nickel affinity purification
Method: In a process of Western Blot, Gel block of samples from the Electrophoresis was electro-transferred to NC membrane at 100 V for 90 min. The NC membrane was then washed with TBST for three times, and blocked with 5% skim milk on a shaker for 2 h. After blocking, the NC membrane was then washed with TBST for three times, and incubated with GPER antibody (Invitrogen, PA5-28647) overnight. After that, the NC membrane was then washed with TBST for three times, and incubated with secondary antibody (HRP-labeled Goat Anti-Rabbit IgG, ABclonal, AS014, BR) at room temperature for 3 h, washed with TBST for three times, visualized the result in the dark room with DAB.

B1: recombinant protein of GPER (G protein-coupled estrogen receptor) (receptor)
chain: LSHPLLGTALANGTGELSEHQQYVIGLFLSCLYTIFLFPIGFVGNILILVVNISFREKMTIPDLYFINLAVADLILVADSLIEVFNLHERYYDIAVLCTFMSLFLQVNMYSSVFFLTWMSFDRYIALARAMRCSLFRTKHHARLSCGLIWMASVSATLVPFTAVHLQHTDEACFCFADVREVQWLEVTLGFIVPFAIIGLCYSLIVRVLVRAHRMKKYTCTVCGYIYNPEDGDPDNGVNPGTDFKDIPDDWVCPLCGVGKDQFEEVEEHRGLRPRRQKALRMILAVVLVFFVCWLPENVFISVHLLQRTQPGAAPCKQSFRHAHPLTGHIVNLAAFSNSCLNPLIYSFLGETFRDKLRLYIEQKTNL
notes: The source plasmid is wild-type GPER (pDNR-Dual, BC011634, HsCD00005110); The purified protein is reported as monomer and dimer; also called GPER protein
binding result: binds
